Assay results published in PMC7530003 (Developmental cell, 2020).

Biological target: F-actin prepared by polymerizing β-actin (UniProt P60709 1-375)
Assay: co-sedimentation

Kd: ~10 µM
B1: ZO-1 ABR construct for co-sedimentation (EGFP-ZO-1(1159–1382)-Dual Strep) (domain or fragment, human, UniProt Q07157 1159-1382, looked up)
chain: EQPAPGYDTHGRLRPEAQPHPSAGPKPAESKQYFEQYSRSYEQVPPQGFTSRAGHFEPLHGAAAVPPLIPSSQHKPEALPSNTKPLPPPPTQTEEEEDPAMKPQSVLTRVKMFENKRSASLETKKDVNDTGSFKPPEVASKPSGAPIIGPKPTSQNQFSEHDKTLYRIPEPQKPQLKPPEDIVRSNHYDPEEDEEYYRKQLSYFDRRSFENKPPAHIAASHLSE
